Reference: PMC4606517

Tests used:
[1] = biological target: hAgo2 (single-molecule) (Homo sapiens) (UniProt Q9UKV8); test: single-molecule FRET; conditions: 5'-phosphate on guide, C6-amino-U in guide (nt 9) and in target (opposite guide nt 17), Filter binding: 30 mM Tris pH 8.0, 0.1 M K acetate, 2 mM Mg acetate, 0.5 mM TCEP, 0.005% NP-40, 0.01 mg/ml yeast tRNA, room temp, 45 min, 0.1 nM target …
[2] = biological target: Ago2 wild type (Homo sapiens) (UniProt Q9UKV8); test: filter binding; conditions: 5'-phosphate on guide; target nt 9 (N) = inosine; Filter binding: 30 mM Tris pH 8.0, 0.1 M K acetate, 2 mM Mg acetate, 0.5 mM TCEP, 0.005% NP-40, 0.01 mg/ml yeast tRNA, room temp, 45 min, 0.1 nM target …
Sequence of Ago2 wild type (Homo sapiens) (Q9UKV8 whole entry): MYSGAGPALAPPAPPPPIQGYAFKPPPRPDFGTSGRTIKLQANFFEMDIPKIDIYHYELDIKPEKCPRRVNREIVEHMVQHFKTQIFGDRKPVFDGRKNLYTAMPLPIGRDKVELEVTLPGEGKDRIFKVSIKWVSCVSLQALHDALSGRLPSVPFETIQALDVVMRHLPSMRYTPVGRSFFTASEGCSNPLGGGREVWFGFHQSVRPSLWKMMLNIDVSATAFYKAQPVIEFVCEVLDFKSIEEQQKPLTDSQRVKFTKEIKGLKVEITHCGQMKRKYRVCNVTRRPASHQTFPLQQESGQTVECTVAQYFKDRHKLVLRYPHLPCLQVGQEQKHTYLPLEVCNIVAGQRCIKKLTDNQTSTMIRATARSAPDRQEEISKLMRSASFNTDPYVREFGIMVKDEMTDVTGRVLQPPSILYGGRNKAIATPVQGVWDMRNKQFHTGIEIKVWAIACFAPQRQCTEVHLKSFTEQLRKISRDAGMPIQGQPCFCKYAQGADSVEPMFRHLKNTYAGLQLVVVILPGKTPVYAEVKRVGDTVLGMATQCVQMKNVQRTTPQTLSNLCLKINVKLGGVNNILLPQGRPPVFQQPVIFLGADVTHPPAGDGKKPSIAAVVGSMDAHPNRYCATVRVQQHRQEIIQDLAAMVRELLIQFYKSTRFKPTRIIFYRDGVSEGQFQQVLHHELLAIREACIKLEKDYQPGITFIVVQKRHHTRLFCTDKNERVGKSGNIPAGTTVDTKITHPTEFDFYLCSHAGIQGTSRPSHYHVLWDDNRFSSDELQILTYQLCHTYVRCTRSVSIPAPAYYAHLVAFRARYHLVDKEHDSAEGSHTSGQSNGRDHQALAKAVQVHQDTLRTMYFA

Sequence of hAgo2 (single-molecule) (Homo sapiens) (Q9UKV8 whole entry): as above

Which binding signal ([1]; long dwell time (50.2%), short 1.61 ± 0.29 s (49.8%)) does the source give for “UGAGGUAUUUUUUUUUUUUUUU / UUUUUUUUUUUUUUUUUUUUUUUUUUUUUUUACUACCUCAUUUUUUUUUUUUUUUUUUUUUUUUUUUUU [smFRET guide + t1A target]” here?
The binding signal was 8.69 s.

With “UGAGGUAUUUUUUUUUUUUUUU / UUUUUUUUUUUUUUUUUUUUUUUUUUUUUUUACUACCUCAUUUUUUUUUUUUUUUUUUUUUUUUUUUUU [smFRET guide + t1DAP target]” as the sequence, how does the binding signal ([1]; long dwell time (55.4%), short 1.97 ± 0.24 s (44.6%), target nt 40 = 2,6-diaminopurine (written A)) read?
Its binding signal is 12.9 s.

With “UGAGGUAUUUUUUUUUUUUUUU / UUUUUUUUUUUUUUUUUUUUUUUUUUUUUUUACUACCUCUUUUUUUUUUUUUUUUUUUUUUUUUUUUUU [smFRET guide + t1U target]” as the sequence, how does the binding signal ([1]; dwell time, single exponential) read?
Its binding signal is 1.64 s.

Which Kd [2] does the source give for “UUCACAUUGCCCAAGUCUCUU / CAAUGUGANAA [guide + t1I target]” here?
Its Kd is 1.7 nM.
